From a protein production outcome set (Wang et al. 2014)

Experiment: label from the status in PepcDB records
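Also: failed if final PepcDB status was selected cloned or expressed and not failed if soluble or beyond.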

Sequence	protein production
MGRKQLNHIKCRENCSLVAKAGFRHRRVIIQGIQSAMVQDSDEILFVEEEDPVAGSLPSDVSPWKVLVADDDPEVFTVTRLVLSGFVFAGRGVSLLYAGSAAEATEILRQQSDIAVALLDVVMETEDAGLKLVKVIRDDLGNSHLRIVLRTGQPGQAPEHDVVMRYDINDYRSKTELTDTKLITTLVSSLRSYQQIEALERSRAELREARDTLEIRVAERTRDLRESEARLRSILDASVFPILVLSEEGDRVRFLNDHAGEALGWALLENTTSTLPDLWENPVDGARLLARTVQRGRVLDCEFRLRGAGGEPFWALVSTIAMSYDGQPAVLLSFNDITVHKQREEAWQRLALTDPLTGLGNRRLLFDRGILEVARARRGCWPLSGLMIDLDHFKRINDTQGHAAGDAILRTLADTLRESLREIDVIARVGGEEFAILLPDTSLTAAHEVGERLRLSCQIPQPVGGPVTISVGISTLHPEDRGLGDMLSRADDALYRAKRNGRDRVEIADDSEDNQDVSP	failed
MITMTEVKGKTANESRVFKTSRVFPTDLNDHNTLFGGKILSEMDMVASISASRHSRKECVTASMDWVDFLHPVRSSDCVSYESFVIWTGRTSMEVFVKVVSEYLISGEKRIAATSFVTFVALSKENNPVPVPRVIPDTEEEKESHRIAVLRAEQRHIRKAESKKVATLLTF	not failed
MAIDSKPHDDLQLFKTNLHPCGYWPDRWASDLVMDPNDPRLGAIYPQTLAWGFRRSGNLLYRPHCEHCNACVPVRVNVNAFVPNRSQRRCLARNATLVTRIVPAERNAEQLSLYRRYLHQRHPDGGMDGHGAIEFDQFLIGPWGYGRFMEIREPATNGTPGQLLAVAVTDLTHQALSAVYTFYEPNAAARGLGTLAILHQIHWAQREQRPYLYLGYWIKDHFKMDYKRRFQKLEIYDGYRWRPFSTTYPTTHTLLEHHHHHH	not failed
MSLEAIRIGEINSYSQIPAFTLPYRNGWQLAVEQINAAGGLLGGRPLEVISRDDGGDPGKAVTAAQELLTRHGVHALAGTFLSHVGLAVSDFARQRKVLFMASEPLTDALTWEKGNRYTYRLRPSTYMQAAMLAAEAAKLPITRWATIAPNYEYGQSAVARFKELLLAARPEVTFVAEQWPALYKLDAGPTVQALQQAEPEGLFNVLFGADLPKFVREGRVRGLFAGRQVVSMLTGEPEYLNPLKDEAPEGWIVTGYPWYDIDTAPHRAFVEAYRARWKEDPFVGSLVGYNTLTAMAVAFEKAGGTESETLVETLKDMAFSTPMGPLSFRASDHQSTMGAWVGRTALRDGKGVMVDWRYVDGGSVLPPPEVVSAWRPAGEGHHHHHH	not failed
MDAYSWLLAVIILLPLISASVPIAASVRWKNVGWAIAAVVVSATFAMSVALAWMVPRAEDRLLAHQLGGVEVPIGIELFADEFSVIVLLLVLAVCLGVLVFTRIGGPRGNAFYSGFLLLVGGMMGILLTGDLFNMYVFLEIMAISSYALVSASKYRWSTYAAFKYLLVGTVGAGFYLLGVALVLASTGTLTMRLLPELLAAVGYTDPVVVAAFILMAVGLAIKIALFPVHTWLADAHASAPDGISAVISALVPAVAVYAFARVLFTVYTLDFIAANPVIGNLLLVAALFSLFAGSFFALLQDHIKLVLAYSTVSQFGLIFVGIAIANETAVFGAILQIFGHGVVKASLFVLAGMFALRFGGIRTLKEYSGVAERAPIMAGAFAVLGIAMIGLPPTVGFAGKWYIALGAFEAGLWQVSLLVLGSTLLSAGYILPFINRIYFHPFEGEDVDAAKVTTGMLIAIIIGAGIGLLLGFASAEIQAAVSTAVERLVA	failed
MDIHIKPINTFAHAEMDALYTMIFHFYEEYDPTHVITKESINDTIIHLTNHPESGSIQFVYDAENALVGYVILIKYWSNEYQGYLLFIDELYIVPDKRSLGYGRTCITLIEKTFHDIQALALEVSPKNTRAQAFYLQLGFLPNKNKTFIKIKY	failed
MNMLALTILLPLIGFVLLAFSRGRWSENLSATVGMGSVGLAALVTAYVGVDFFANGKQAVSVPLWTWMSVGDFNIGFNLVLDGLSLTMLSVVTGVGFLIHMFASWYMRGEEGYSRFFAYTNLFIASMVVLVLADNLLLMYLGWEGVGLCSYLLIGFYYTDPKNGAAAMKAFVVTRVGDVFLAFALFILYNELGTLNFREMVELAPQHFANGSTTLQWATLMLLGGAVGKSAQLPLQTWLADAMAGPTPVSALIHAATMVTAGVYLIARTHGLFLMTPEVLHLVGIVGAVTLVLAGFAALVQTDIKRVLAYSTMSQIGYMFLALGVQAWDAAIFHLMTHAFFKALLFLSSGSVILACHHEQNIFKMGGLRKSIPLVYVCFLVGGAALSALPLITAGFFSKDEILAGAMANGHINLMVAGLVGAFMTSLYTFRMIFIVFHGKEQIHAHAGKGITHHLPLIVLLVLSTFVGALIVPPLEGVLPQTTELAHGSVMTLEIASGIIAIAGILIAAWLWLGKRTLVTSIANSAPGRFFGTWWFHAWGFDWLYDKVFVKPFLGIAWLLKRDPLNSLMNIPAILSRFAGKGLLVSENGYLRWYVASMSIGAVVVLALLMVLR	failed
MASDPITTQEFSPRQNAVLDQALRLLVEGGEKALTTSGLARAANCSKESLYKWFGDRDGLLAAMITFQQSKVRTFEKAGDRVSAPQLADHLEVFAHDLLDVLAGDVSLALNRLAIGQASRDGSKLGDLLLERGRRQIDRRARGLIEAGRRSGYLRFDDAEEAYRSFYGLIVSDLHVRMLLGEAPDKDFSARAKKAVVAFLTLYGTEKVHSELGGKVA	not failed
MFLKKKLSAGKSVVGTMLNLVYNPDIVRIYAEAGLDYFIVDCEHAAYTFREINHLVSVAKNAGVSVLVRIPQVDRAHVQRLLDIGAEGFMIPGVQSAETMRETVRLAKYPPLGERGVGGSIVTDFKPVNWAEWVQERNDEIFIMAQIEHVKAVEDIDSILAVQGVDAVIFGPRDLSNDLGIIGQTEHPKVYECYEKVYRAADRQGVVKGFFTAADAAKMGWAVERGAQMLLWSGDVAALQTYTAKGVKTIKELPGFNP	not failed
MSPSDSSGDSDDPARSRAAVRRTYEDIGDHFSKTREYAWPEVESFVDESGSVGTALDAGCGNGRHAELLAGVADRVVGLDASRALLRAATDRVGDSVALLQGDATRLPLAAGAVDLAVYVATLHHLPSQTARRASLDELARVLAPGARALVSAWSTAHDHFDADPDADEGFDTTVDWTLPGGETVPRFYHIYAPAEFERDVADSDLRLVSMELSSGNCYGVVEPEGKRT	failed
MLELLTLLLPVAAASGWYAAARHHGRNLSAGLNDGLQRAYQTPTDTAIGARADEAFHLLRQIADSSAKTLELQLALGGLLRRSGELSKAIELHERLHSQPQMSDEQLHAIRFELGMDYLSAGLLDRAETVFAGLTATASHGKASLQQMLAIYQSEKDWVRAAECARSLKKFDAGQRNATLAHLLCEQAESAIARGETVAAHAHLQQALAEDPRCVRATLLKSRLALQRQQWAEAGTLLRSVEFQNPAFLPEVIGQLRLCHASLRDMDGYLTYLDYVYQRYRTEAAALLLADELAQREGAPAAASYLTGLLSERSSLNLIRRTLHYAGAATCIDGDCLSILRRCLTALDGLASMHPGYGCVQCGYECRELHWHCPTCRAWETIQPADPGVGFSGKTPATTPS	failed
GHMAKAYKQAGVDIEAGYQAVALMKEHVQKTMRPEVLGGIGGFGGLFDLSALGYRQPVLISGTDGVGTKLKLAFLLDRHDTIGIDCVAMCVNDIIVQGAEPLFFLDYIACGKAVPEKIAAIVKGVADGCVEAGCALIGGETAEMPGMYDEDEYDLAGFAVGVAEKERLITGETIQAGDALVGLPSSGLHSNGYSLVRRIVFEQAKLSLDEIYEPLDVPLGEELLKPTRIYAKLLRSVRERFTIKGMAHITGGGLIENIPRMLPPGIGARIQLGSWPILPIFDFLREKGSLEEEEMFSVFNMGIGLVLAVSPETAAPLVEWLSERGEPAYIIGEVAKGAGVSFAGGGRA	not failed
MDVTGKSLKRILLSLAVFCILITGPGIACAEEATTQEKEILFSDYFKSMMDMAQDKYKGEITEKQMLEGALKGIFSTMDSYTVYYTVEESQDFFTDINGSYTGIGVVMSEVDGKIVIDKVYPSSPAEEAGIKKGDVIAQVDGKSVENLSLEEVAGLIKGPSGTKVVIGVLRNGTDGVIELEVTRRQIIINPVTHKIEGDIGYIKLESFNSNASKAMEEALKQMDKNNIKKIILDLRDNPGGDVGQAVSIARKFVKKGLITKLDFKSESQKDEEYYSYLEELKYKLVVLVNENSASASEILAGAIQDTGSGILVGTTTFGKGKVQNLYPILTPEAVEKYRKETGETFVNGYDLLEKHGIYPSDEEIIGWVKITTGEYYTPNGRMIDGVGLEPDVYVENEPEGKYKILEGVEKLRKVTKPSLNAQSEDVLNAEKILSALGYDVDTPDNLMDEKTVKAVAEFQRDCGLYSYGVLDFATQQALNDKLDELLLVKNRDKQYEKAVELLEN	failed
MATNLIGLDTTQSQKLANALNNLLANYQVFYMNTRGYHWNIQGKEFFELHAKFEEIYTDLQLKIDELAERILTLSARPMHSFSGYLKAAQIKEHTDSIDGRSSMQGLVDGFSILLHQQRDILELAGETGDEGTSALMSDYIREQEKLVWMLNAWLK	not failed
MTQTVDIENTDNVLSRRDSNAETQQMLRQRFETQPDLMPAQLASELGIAELEVVTALPQAQRVFLPLAHMDELLQSLPEWGSLTTIVMLSGSVFEFKGDFPQGKFAHGYYNLYSKGDGLHGHLKLDGMRAIALISRPFRGSESHSINFFGPQGEVVFKVYLGRDKQRVLFPDQVRRFKALAATFAD	failed
MFFRSIRFSLTLWYAVTLAVILVLFSSFIYLVLSNQLNKGIDRELLTVAEAVASPTLEPFRHAAPSVFDQVLEDFIGTRLTGKHVQVLDGSGAVAASSKSMEELRIPLGKTALRRVQAGKVSYETRVNLDVYPVRTIVYPIMTDGRLDQIVLVGTSMRGPAETLEKVQLVFAVSIPLALILWSLGGWFLAGRALKPVDLITRSARKITAENLGLRLEVINPQDEIGRLATTFNDTLERLENAFNRIRQFTGDVSHELRTPLTILRGEAEVGLKWAKEPEEFRELLRSNLEEINRMSKIIETLLELSRVEGGVKLELADLDLSDLLAELVQQSRLIAPDKSLRIAFVGQEPVTILGDWLRLRQVFMNLLDNAVKYTPADGEISVVVDTTGDSARVAIIDSGPGIPPEDLPHIFERFYRVDKARNRADGGCGLGLSLVKTFVEAHGGRIEVVSEAGKGSIFTVLLPRVVAG	not failed
MAALAIIQSLNTSSYPIDIQRLKPKKMPEEPGPARNKFRSDFIVEIALIVAVAVYLVMAQGQVVGENLSFTVTGAALMALATYWTLHTIRDGLEVIALRLRPGK	failed
MITVLILRCIMVKSTTRKSAKSDRRRYNRIARFYDLFETPMELMNFRKWRKMLFDLIKAEKGLVLEIGAGTGKNIPHYPSNVVALDISEKMLERAVRRAKESGKKVDFLLADAENLPFRSNSFDVVFTTFVFCSVDDPVRGLREAFRVLKKGGRAYFLEHMLPKSRFLHPLFNLLNPIFRAFGPEINRRTDENIQRAGFQIVKEYMLFGSVFRLIVAEKPLDSVDEASGYSLKRSESSDSSNFRRFIGQSLLPLRLTQLLR	failed
GPVPTPPDNIQVQENFNISRIYGKWYNLAIGSTCPWLKKIMDRMTVSTLVLGEGATEAEISMTSTRWRKGVCEETSGAYEKTDTD	failed
ASIYKNKKSHEQLSALKGSFCRNQFPGQSEVEHLTKVTGLSTREVRKWFSDRRYHCRNLKGSR	not failed
MNVFARSSVLAAEMIDVFDRTHTEKELVFQSKELCRDFIHSRITREGLSWSKVELDLPEPRGVLVDVSVVLLKLGDELECMRPYVYRNIAKQLNISVSVEAVVSDAFLSVATEVIAMGITWGKVVAIYAVAAGLAVDCVRLGHPVMVHTIVDSLGEFVRRSLVPWLKKRGGWVDILKCVVNMDSRAHVHWLSTAVLTWREFIKTMYVYLTK	failed
SKGMALRSVGGMVIESPRNETEHWLLETVGRQAQQAGIGMPTVAIYDSADINAFATGAKRDDSLVAVSTGLLHNMTRDEAEAVLAHEVSHIANGDMVTMTLMQG	not failed
